Laboratory results as given in patent US20110150901A1 (published 2011).

Columns and labels:
huR1b = assay: ELISA
huR4 [1] = assay: ELISA
huR4 [2] = assay: Alphascreen inhibition; FGF21/BK+R4
[3] = target: T1, recombinant human β-Klotho (UniProt Q86Z14 53-996); assay: binding
[4] = target: T1, recombinant human β-Klotho; assay: ELISA
[5] = target: T1, recombinant human β-Klotho; assay: ELISA; remark: listed apart in the source

T1 sequence (Q86Z14 53-996): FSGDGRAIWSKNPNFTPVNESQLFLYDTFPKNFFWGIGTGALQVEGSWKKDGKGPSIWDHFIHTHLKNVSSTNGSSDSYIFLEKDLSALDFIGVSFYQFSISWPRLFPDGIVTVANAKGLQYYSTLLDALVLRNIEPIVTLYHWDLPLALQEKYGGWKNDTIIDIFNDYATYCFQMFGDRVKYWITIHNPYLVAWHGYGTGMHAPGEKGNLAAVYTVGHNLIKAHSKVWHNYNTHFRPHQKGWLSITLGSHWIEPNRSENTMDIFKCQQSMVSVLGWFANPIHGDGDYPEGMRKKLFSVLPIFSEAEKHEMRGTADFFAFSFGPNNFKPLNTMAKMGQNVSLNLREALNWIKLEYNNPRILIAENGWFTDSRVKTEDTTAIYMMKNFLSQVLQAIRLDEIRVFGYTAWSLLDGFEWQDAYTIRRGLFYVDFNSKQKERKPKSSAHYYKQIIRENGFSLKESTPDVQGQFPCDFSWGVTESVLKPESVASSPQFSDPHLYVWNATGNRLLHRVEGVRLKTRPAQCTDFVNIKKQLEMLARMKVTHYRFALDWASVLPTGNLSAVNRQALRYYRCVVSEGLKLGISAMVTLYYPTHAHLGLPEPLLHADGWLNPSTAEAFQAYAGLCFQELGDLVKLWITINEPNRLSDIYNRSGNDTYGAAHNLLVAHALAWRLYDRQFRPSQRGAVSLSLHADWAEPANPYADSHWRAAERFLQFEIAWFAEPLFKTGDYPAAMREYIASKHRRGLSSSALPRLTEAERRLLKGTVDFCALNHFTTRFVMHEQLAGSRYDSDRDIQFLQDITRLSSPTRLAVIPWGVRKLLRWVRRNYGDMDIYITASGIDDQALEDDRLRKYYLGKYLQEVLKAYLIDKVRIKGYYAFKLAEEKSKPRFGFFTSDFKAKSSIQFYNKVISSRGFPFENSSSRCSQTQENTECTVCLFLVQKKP

Binder	EC50 (huR4 [1]) [nM]	EC50 [3] [nM]	also measured
CLSDQFTCRSTNICLPLQWVCDGDDDCEDNSDEEDCSAPASEPPGSL (designed binder) [R1c_M31]	~300	–	EC50 (huR1b): 112 nM; IC50 (huR4 [2]): 5000 nM
β-Klotho walked dimer BK_R1c_D15 (designed binder) CLPDEFQCGSGRCIPQTWVCDGLNDCGDGSDEPPAHCSAPASEPPGSLCRSNQFTCGNGNCIPQPWVCDGEDDCGDDSDEESCKEHT	–	9.1	–
β-Klotho-binding monomer bKmutM28 (designed binder) CPWFHHFKCRNGQRIPLHLVCDGVPDCGDDSDETDCGDSHILPFSTPGPST	–	–	EC50 [4]: 214 nM
β-Klotho walked dimer BK_R1c_D14 (designed binder) CLPDEFQCGSGRCIPQTWVCDGLNDCGDGSDEPPAHCSAPASEPPGSLCRSDEFRCGNGRCIPLTWVCDGEDDCQDSSDETGCTTPGHT	–	23	–
β-Klotho walked dimer bKWD01 (designed binder) CLPDEFQCGSGRCIPQHWLCDGLNDCGDGSDEPPAHCSAPASEPPGSLCRAGEFRCSNGRCVPLTWLCDGEDDCQDNSDEKNCAQPT	–	0.05	EC50 [5]: < 0.4 nM
CGAGQFTCRDTNICISRAWRCDGVDDCEDNSDEADCSQDPEFHKV (designed binder) [R1c_M08]	–	–	EC50 (huR1b): 17 nM
CRLNEFPCGSGSCISLHWVCDSVPDCRDDSDETDCPERT (designed binder) [R1c_M33]	~300	–	–
BK_RI_D05 (designed binder) CAAGQFRCHNSDTCLPGAWVCDGDNDCGDNSDEASCQKRTCHSFNQFECRNGQCIPLHLVCDGVPDCGDNSDETDCGDSHILPFSTPGPST	45.1	–	–
